From doi:10.1101/2023.11.28.564875 (bioRxiv, 2023)

Key:
[1] = molecular target: T1, GST-fused Cα-subunit of mouse PKA (GST-PKAC) (mouse, UniProt P05132 1-351); test: pull-down
[2] = molecular target: T1, GST-fused Cα-subunit of mouse PKA …; test: pull-down; remark: listed apart in the source

Kd [1]: < 1000 nM
IC50 [2]: 880 nM
B1: His8-DCRD-Myc (domain or fragment)
chain: RQFHGSASSLVEAVLISEGLGQFAQDPKFIEVTTQELADACDLTIEEMENAADDILSGGARQS
